Measurements taken from publication PMC10460389, “Design of 8-mer peptides that block Clostridioides difficile toxin A in intestinal cells” (Communications Biology, 2023).
Ends that are not written are not given here.

Biological target: T1, Clostridioides difficile Toxin A labelled with Alexa Fluor 594 (Clostridioides difficile, UniProt P16154 1-2710)
T1 construct: also called TcdA-AF594; red fluorescently labeled TcdA
Test: bead-based fluorescence imaging
Conditions: both partners purified

T1 sequence (P16154 whole entry, looked up): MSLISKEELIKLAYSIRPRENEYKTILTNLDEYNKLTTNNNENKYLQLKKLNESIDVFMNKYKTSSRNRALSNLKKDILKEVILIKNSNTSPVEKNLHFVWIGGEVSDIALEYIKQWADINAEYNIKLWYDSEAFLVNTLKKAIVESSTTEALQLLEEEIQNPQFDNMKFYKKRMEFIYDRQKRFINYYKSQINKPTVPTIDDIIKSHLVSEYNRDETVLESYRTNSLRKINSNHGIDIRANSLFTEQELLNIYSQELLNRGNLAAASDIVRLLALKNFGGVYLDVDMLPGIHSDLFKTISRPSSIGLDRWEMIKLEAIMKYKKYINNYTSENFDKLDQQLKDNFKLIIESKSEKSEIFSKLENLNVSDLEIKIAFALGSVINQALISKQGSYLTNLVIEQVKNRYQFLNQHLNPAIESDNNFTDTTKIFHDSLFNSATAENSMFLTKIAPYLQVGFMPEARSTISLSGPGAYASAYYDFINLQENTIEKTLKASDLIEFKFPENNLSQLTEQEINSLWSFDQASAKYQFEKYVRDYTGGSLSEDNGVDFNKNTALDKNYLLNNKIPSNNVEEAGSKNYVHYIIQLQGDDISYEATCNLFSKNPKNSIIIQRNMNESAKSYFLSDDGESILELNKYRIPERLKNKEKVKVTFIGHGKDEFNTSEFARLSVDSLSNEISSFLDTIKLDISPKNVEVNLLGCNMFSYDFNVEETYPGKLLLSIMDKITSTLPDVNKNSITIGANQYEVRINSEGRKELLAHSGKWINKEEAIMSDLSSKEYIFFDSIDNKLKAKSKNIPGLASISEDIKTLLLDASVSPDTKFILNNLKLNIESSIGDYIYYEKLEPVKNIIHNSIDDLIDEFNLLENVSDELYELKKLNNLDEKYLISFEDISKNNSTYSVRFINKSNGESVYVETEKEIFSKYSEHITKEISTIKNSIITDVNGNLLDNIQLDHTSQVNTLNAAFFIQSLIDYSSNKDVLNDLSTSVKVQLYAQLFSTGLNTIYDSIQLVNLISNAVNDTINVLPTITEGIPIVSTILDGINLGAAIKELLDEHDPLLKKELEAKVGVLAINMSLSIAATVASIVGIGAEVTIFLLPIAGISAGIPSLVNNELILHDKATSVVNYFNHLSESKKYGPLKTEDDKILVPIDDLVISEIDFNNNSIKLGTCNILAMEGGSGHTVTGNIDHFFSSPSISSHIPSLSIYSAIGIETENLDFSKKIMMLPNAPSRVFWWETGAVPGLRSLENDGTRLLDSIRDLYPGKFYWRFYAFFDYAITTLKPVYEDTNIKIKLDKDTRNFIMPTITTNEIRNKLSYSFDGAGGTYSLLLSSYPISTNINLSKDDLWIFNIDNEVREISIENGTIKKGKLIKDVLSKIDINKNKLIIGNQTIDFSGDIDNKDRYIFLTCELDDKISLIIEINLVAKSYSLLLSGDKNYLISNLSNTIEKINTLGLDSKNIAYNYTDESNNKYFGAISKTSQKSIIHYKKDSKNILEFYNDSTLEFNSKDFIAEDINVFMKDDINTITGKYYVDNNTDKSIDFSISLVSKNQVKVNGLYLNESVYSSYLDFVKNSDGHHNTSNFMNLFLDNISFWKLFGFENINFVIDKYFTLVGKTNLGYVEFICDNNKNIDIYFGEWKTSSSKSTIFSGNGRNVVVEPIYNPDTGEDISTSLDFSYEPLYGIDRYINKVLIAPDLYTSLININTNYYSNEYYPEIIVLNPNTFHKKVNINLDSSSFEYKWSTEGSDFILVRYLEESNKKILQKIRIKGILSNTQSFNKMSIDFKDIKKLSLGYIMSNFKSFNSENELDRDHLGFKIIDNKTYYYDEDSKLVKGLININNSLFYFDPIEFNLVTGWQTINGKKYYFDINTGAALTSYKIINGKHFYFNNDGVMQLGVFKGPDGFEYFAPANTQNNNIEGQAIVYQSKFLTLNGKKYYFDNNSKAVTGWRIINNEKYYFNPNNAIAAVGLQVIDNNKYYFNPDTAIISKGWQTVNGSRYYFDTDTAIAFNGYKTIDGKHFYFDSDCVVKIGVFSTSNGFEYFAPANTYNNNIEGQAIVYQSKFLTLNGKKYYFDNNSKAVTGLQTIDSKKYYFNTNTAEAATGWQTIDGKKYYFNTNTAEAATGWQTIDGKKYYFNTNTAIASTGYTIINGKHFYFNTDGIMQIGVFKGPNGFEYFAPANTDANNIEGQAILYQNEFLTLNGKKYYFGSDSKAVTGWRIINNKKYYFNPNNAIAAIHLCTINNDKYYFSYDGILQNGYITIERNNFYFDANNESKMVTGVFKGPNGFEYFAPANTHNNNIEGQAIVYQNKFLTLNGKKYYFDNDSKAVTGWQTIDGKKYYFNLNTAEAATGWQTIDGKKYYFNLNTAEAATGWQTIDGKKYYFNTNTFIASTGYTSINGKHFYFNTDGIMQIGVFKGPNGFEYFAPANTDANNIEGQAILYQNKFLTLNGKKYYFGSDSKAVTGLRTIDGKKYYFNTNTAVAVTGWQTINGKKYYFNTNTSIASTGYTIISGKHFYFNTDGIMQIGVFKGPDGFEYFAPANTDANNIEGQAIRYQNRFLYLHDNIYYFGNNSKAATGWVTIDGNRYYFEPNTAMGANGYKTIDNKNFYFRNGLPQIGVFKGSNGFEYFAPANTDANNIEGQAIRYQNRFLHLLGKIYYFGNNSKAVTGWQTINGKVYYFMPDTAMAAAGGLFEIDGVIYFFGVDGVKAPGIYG

Binder | binding result
QDWMRRHWGSG (also: on ChemMatrix Aminomethyl bead via GSG linker) [SA2 on ChemMatrix Aminomethyl bead (GSG linker)] | binds
MFWEHRHRGSG (also: on ChemMatrix Aminomethyl bead via GSG linker) [SA4 on ChemMatrix Aminomethyl bead (GSG linker)] | binds
